Experimental data: the Immune Epitope Database (IEDB)

What was measured:
HLA-B*39:01 [1] = assay: IEDB peptide-MHC binding, purified MHC/competitive/fluorescence; filed as Kd, often an IC50 or EC50 that approximates it; ≥ and ≤ were set here for values at or beyond the usual limits of such assays; settings: source organism: Influenza A virus (A/X-31(H3N2))
HLA-B*18:01 [2] = assay: as above
HLA-A*68:02 [3] = assay: as above; settings: source organism: Influenza A virus (A/X-31(H3N2))
HLA-A*02:06 = assay: as above; settings: source organism: Influenza A virus (A/X-31(H3N2))
HLA-A*02:01 = assay: IEDB peptide-MHC binding, purified MHC/direct/fluorescence; filed as Kd, often an IC50 or EC50 that approximates it; ≥ and ≤ were set here for values at or beyond the usual limits of such assays
HLA-A*03:01 = assay: as above
HLA-A*02:03 = assay: as above; settings: source organism: Influenza A virus (A/Taiwan/2/2006(H1N1))
HLA-B*27:05 = assay: as above
HLA-A*26:03 [4] = assay: as above; settings: source organism: Influenza A virus (A/Taiwan/2/2006(H1N1))
HLA-A*02:19 = assay: as above; settings: source organism: Influenza A virus (A/Taiwan/2/2006(H1N1))
HLA-A*11:01 = assay: as above
HLA-A*24:02 [5] = assay: as above; settings: source organism: Influenza A virus (A/Hong Kong/213/2003(H5N1))
HLA-B*57:01 = assay: as above
HLA-A*01:01 = assay: as above
HLA-A*24:03 = assay: as above; settings: source organism: Influenza A virus (A/Hong Kong/213/2003(H5N1))
HLA-B*15:17 [6] = assay: as above; settings: source organism: Influenza A virus (A/Hong Kong/213/2003(H5N1))
HLA-A*31:01 = assay: as above
HLA-B*15:01 [7] = assay: as above
HLA-B*07:02 = assay: as above
HLA-A*23:01 = assay: as above; settings: source organism: Influenza A virus (A/Hong Kong/213/2003(H5N1))
HLA-A*02:12 = assay: as above; settings: source organism: Influenza A virus (A/Taiwan/2/2006(H1N1))
HLA-B*08:02 = assay: as above
HLA-B*58:01 = assay: as above
HLA-A*26:02 [8] = assay: as above; settings: source organism: Influenza A virus (A/Taiwan/2/2006(H1N1))
HLA-A*02:11 = assay: as above; settings: source organism: Influenza A virus (A/Taiwan/2/2006(H1N1))
HLA-B*15:09 = assay: as above; settings: source organism: Influenza A virus (A/Taiwan/2/2006(H1N1))
HLA-B*08:01 = assay: as above
HLA-A*26:03 [9] = assay: IEDB peptide-MHC binding, purified MHC/competitive/fluorescence; filed as Kd, often an IC50 or EC50 that approximates it; ≥ and ≤ were set here for values at or beyond the usual limits of such assays; settings: source organism: Vibrio parahaemolyticus RIMD 2210633
HLA-A*26:01 [10] = assay: as above; settings: source organism: Vibrio parahaemolyticus RIMD 2210633
HLA-B*35:01 = assay: as above; settings: source organism: Vibrio parahaemolyticus RIMD 2210633
HLA-B*15:17 [11] = assay: as above; settings: source organism: Vibrio parahaemolyticus RIMD 2210633
HLA-B*15:01 [12] = assay: as above; settings: source organism: Vibrio parahaemolyticus RIMD 2210633
HLA-A*26:02 [13] = assay: as above; settings: source organism: Vibrio parahaemolyticus RIMD 2210633
HLA-A*68:02 [14] = assay: IEDB peptide-MHC binding, purified MHC/direct/fluorescence; filed as Kd, often an IC50 or EC50 that approximates it; ≥ and ≤ were set here for values at or beyond the usual limits of such assays; settings: source organism: Vibrio parahaemolyticus
HLA-B*08:03 = assay: as above; settings: source organism: Vibrio parahaemolyticus RIMD 2210633
HLA-B*40:01 = assay: as above; settings: source organism: Vibrio parahaemolyticus
HLA-B*48:01 = assay: as above; settings: source organism: Vibrio parahaemolyticus
HLA-A*24:02 [15] = assay: IEDB peptide-MHC binding, purified MHC/competitive/fluorescence; filed as Kd, often an IC50 or EC50 that approximates it; ≥ and ≤ were set here for values at or beyond the usual limits of such assays
HLA-A*24:02 [16] = assay: IEDB peptide-MHC binding, purified MHC/competitive/fluorescence; ≥ and ≤ were set here for values at or beyond the usual limits of such assays; settings: source organism: West Nile virus
HLA-B*45:06 = assay: IEDB peptide-MHC binding, purified MHC/competitive/fluorescence; filed as Kd, often an IC50 or EC50 that approximates it; ≥ and ≤ were set here for values at or beyond the usual limits of such assays; settings: source organism: Bacillus anthracis str. A0488
HLA-A*32:15 = assay: as above; settings: source organism: Bacillus anthracis str. A0488
HLA-B*83:01 = assay: as above; settings: source organism: Bacillus anthracis str. A0488
HLA-B*15:42 = assay: as above; settings: source organism: Bacillus anthracis str. A0488
HLA-C*14:02 = assay: as above; settings: source organism: Bacillus anthracis str. A0488
HLA-A*26:01 [17] = assay: IEDB peptide-MHC binding, purified MHC/direct/fluorescence; filed as Kd, often an IC50 or EC50 that approximates it; ≥ and ≤ were set here for values at or beyond the usual limits of such assays; settings: source organism: Bacillus anthracis str. Sterne
HLA-B*39:01 [18] = assay: as above; settings: source organism: Bacillus anthracis str. Sterne
HLA-B*18:01 [19] = assay: as above; settings: source organism: Bacillus anthracis str. Sterne
HLA-B*27:03 = assay: as above; settings: source organism: Bacillus anthracis str. Sterne
HLA-B*46:01 = assay: as above; settings: source organism: Bacillus anthracis str. Sterne
[20] = source organism: Influenza A virus (A/X-31(H3N2))
[21] = source organism: Influenza A virus (A/Hong Kong/213/2003(H5N1))
[22] = source organism: Influenza A virus (A/Taiwan/2/2006(H1N1))
[23] = source organism: Vibrio parahaemolyticus RIMD 2210633
[24] = source organism: Vibrio parahaemolyticus
[25] = source organism: Bacillus anthracis str. Sterne

Q: Which results are given for CFMYSDFHF?
A: Kd (HLA-B*39:01 [1]): ≥ 20 µM; Kd (HLA-B*18:01 [2]; [20]): 1990 nM; Kd (HLA-A*68:02 [3]): 210 nM; Kd (HLA-A*02:06): 49.2 nM; Kd (HLA-A*02:01; [21]): 141 nM; Kd (HLA-A*03:01; [21]): ≥ 20000 nM; Kd (HLA-A*02:03): 307 nM; Kd (HLA-B*27:05; [21]): ≥ 20 µM; Kd (HLA-A*26:03 [4]): ≥ 20 µM; Kd (HLA-A*02:19): 268 nM; Kd (HLA-A*11:01; [21]): ≥ 20 µM; Kd (HLA-A*24:02 [5]): 21 nM; Kd (HLA-B*57:01; [21]): ≥ 20 µM; Kd (HLA-A*01:01; [21]): ≥ 20000 nM; Kd (HLA-A*24:03): 7.5 nM; Kd (HLA-B*15:17 [6]): ≥ 20 µM; Kd (HLA-A*31:01; [21]): ≥ 20 µM; Kd (HLA-B*15:01 [7]; [21]): ≥ 20 µM; Kd (HLA-B*07:02; [21]): ≥ 20 µM; Kd (HLA-A*23:01): ≤ 1 nM; Kd (HLA-A*02:12): 243 nM; Kd (HLA-B*08:02; [22]): ≥ 20 µM; Kd (HLA-B*58:01; [21]): 74.5 nM; Kd (HLA-A*26:02 [8]): ≥ 20 µM; Kd (HLA-A*02:11): 126 nM; Kd (HLA-B*15:09): ≥ 20 µM; Kd (HLA-B*08:01; [22]): ≥ 20 µM

Q: Which results are given for ILRPLGIEY?
A: Kd (HLA-A*26:03 [9]): ≥ 20 µM; Kd (HLA-A*26:01 [10]): 478 nM; Kd (HLA-B*18:01 [2]; [23]): 159 nM; Kd (HLA-B*35:01): 226 nM; Kd (HLA-B*15:17 [11]): 48.8 nM; Kd (HLA-B*15:01 [12]): 282 nM; Kd (HLA-A*26:02 [13]): 403 nM; Kd (HLA-A*02:01; [24]): ≥ 20000 nM; Kd (HLA-A*03:01; [24]): 116 nM; Kd (HLA-B*27:05; [24]): ≥ 20 µM; Kd (HLA-A*11:01; [24]): ≥ 20 µM; Kd (HLA-A*68:02 [14]): ≥ 20 µM; Kd (HLA-B*57:01; [24]): 1.53 µM; Kd (HLA-A*01:01; [24]): 2020 nM; Kd (HLA-B*08:03): ≥ 20 µM; Kd (HLA-B*40:01): ≥ 20 µM; Kd (HLA-A*31:01; [24]): ≥ 20 µM; Kd (HLA-B*07:02; [24]): ≥ 20 µM; Kd (HLA-B*48:01): ≥ 20 µM; Kd (HLA-B*08:02; [23]): ≥ 20 µM; Kd (HLA-B*58:01; [24]): ≥ 20000 nM; Kd (HLA-B*08:01; [23]): ≥ 20 µM

Q: KTHIHIFSF was tested. Which Kd (HLA-A*24:02 [15]; [20]) did it give?
A: 85.5 nM

Q: What does the source list for RYLVKTESW?
A: Kd (HLA-A*24:02 [15]; source organism: West Nile virus): 0.4 nM; IC50 (HLA-A*24:02 [16]): 264 nM

Q: For TTYVYTLPV, which Kd (HLA-B*45:06) is on record?
A: ≥ 5 µM

Q: And the Kd (HLA-A*32:15)?
A: 370 nM

Q: What about the Kd (HLA-B*83:01) of the same sequence?
A: ≥ 5 µM

Q: What about the Kd (HLA-B*15:42) of the same sequence?
A: ≥ 5 µM

Q: And the Kd (HLA-C*14:02)?
A: 3.5 nM

Q: What about the Kd (HLA-A*02:01; [25]) of the same sequence?
A: 90 nM

Q: What about the Kd (HLA-A*26:01 [17]) of the same sequence?
A: ≥ 20 µM

Q: What about the Kd (HLA-B*39:01 [18]) of the same sequence?
A: ≥ 20 µM

Q: What about the Kd (HLA-B*18:01 [19]) of the same sequence?
A: ≥ 20 µM

Q: What about the Kd (HLA-B*57:01; [25]) of the same sequence?
A: ≥ 20 µM

Q: What about the Kd (HLA-B*27:03) of the same sequence?
A: ≥ 20 µM

Q: And the Kd (HLA-B*15:01 [7]; [25])?
A: ≥ 20 µM

Q: What about the Kd (HLA-B*46:01) of the same sequence?
A: ≥ 20 µM
